Experimental data published in paper doi:10.1101/844506v1.

Substrate: O=[N+]([O-])c1ccc(O[C@@H]2O[C@H](CO)[C@@H](O)[C@H](O)[C@H]2O)cc1
Test: purified protein
Conditions: no added glucose

B1: B8CYA8 (β-glucosidase from Halothermothrix orenii) (Halothermothrix orenii H 168) (protein)
chain: MAKIIFPEDFIWGAATSSYQIEGAFNEDGKGESIWDRFSHTPGKIENGDTGDIACDHYHLYREDIELMKEIGIRSYRFSTSWPRILPEGKGRVNQKGLDFYKRLVDNLLKANIRPMITLYHWDLPQALQDKGGWTNRDTAKYFAEYARLMFEEFNGLVDLWVTHNEPWVVAFEGHAFGNHAPGTKDFKTALQVAHHLLLSHGMAVDIFREEDLPGEIGITLNLTPAYPAGDSEKDVKAASLLDDYINAWFLSPVFKGSYPEELHHIYEQNLGAFTTQPGDMDIISRDIDFLGINYYSRMVVRHKPGDNLFNAEVVKMEDRPSTEMGWEIYPQGLYDILVRVNKEYTDKPLYITENGAAFDDKLTEEGKIHDEKRINYLGDHFKQAYKALKDGVPLRGYYVWSLMDNFEWAYGYSKRFGLIYVDYENGNRRFLKDSALWYREVIEKGQVEAN
Km: 1800 ± 100 µM
kcat: 339.0 ± 28.3 s⁻¹
